According to patent US20240409658A1 (Seagen, published 2024):
Where a chain is given by its changes, count along the chain named. Numbers in names are those of the source. Like-named read-outs stand apart in the source and are kept apart here. Blank lines part the entries; values can stand above or below the molecule they belong to.

Experiments:
[1] = target: human CD228 (R&D Systems Custom02; Lot DCWR021505A) (human) (UniProt P08582); assay: ELISA on plate-coated human CD228, pH 7.5
[2] = target: human CD228 (R&D Systems Custom02; Lot DCWR021505A) (human) (UniProt P08582); assay: ELISA on plate-coated human CD228, pH 5.9
[3] = target: human CD228 (R&D Systems Custom02; Lot DCWR021505A) (human) (UniProt P08582); assay: ELISA on plate-coated human CD228, pH 6.66
[4] = target: human CD228 (R&D Systems Custom02; Lot DCWR021505A) (human) (UniProt P08582); assay: ELISA on plate-coated human CD228, pH 5.6
[5] = target: human CD228 (R&D Systems Custom02; Lot DCWR021505A) (human) (UniProt P08582); assay: ELISA on plate-coated human CD228, pH 7.4
[6] = target: human CD228 (R&D Systems Custom02; Lot DCWR021505A) (human) (UniProt P08582); assay: ELISA on plate-coated human CD228, pH 7.1
[7] = target: human CD228 (R&D Systems Custom02; Lot DCWR021505A) (human) (UniProt P08582); assay: ELISA on plate-coated human CD228, pH 4.55
[8] = target: human CD228 (R&D Systems Custom02; Lot DCWR021505A) (human) (UniProt P08582); assay: ELISA on plate-coated human CD228, pH 5.1
[9] = target: human CD228 (R&D Systems Custom02; Lot DCWR021505A) (human) (UniProt P08582); assay: ELISA on plate-coated human CD228, pH 4
[10] = target: human CD228 (R&D Systems Custom02; Lot DCWR021505A) (human) (UniProt P08582); assay: ELISA on plate-coated human CD228, pH 6.3
[11] = target: T1, human CD228 on the cell surface (RPMI-7951 cells stably expressing human CD228; A375 cells) (human, UniProt P08582 20-709); assay: competition flow cytometry, RPMI-7951 cells stably expressing human CD228; competitor 5 nM AF647-labeled mL49; unlabeled antibody 0.06-1000 nM
T1 construct: whole, on cells; also called p97; melanotransferrin
T1 sequence (looked up): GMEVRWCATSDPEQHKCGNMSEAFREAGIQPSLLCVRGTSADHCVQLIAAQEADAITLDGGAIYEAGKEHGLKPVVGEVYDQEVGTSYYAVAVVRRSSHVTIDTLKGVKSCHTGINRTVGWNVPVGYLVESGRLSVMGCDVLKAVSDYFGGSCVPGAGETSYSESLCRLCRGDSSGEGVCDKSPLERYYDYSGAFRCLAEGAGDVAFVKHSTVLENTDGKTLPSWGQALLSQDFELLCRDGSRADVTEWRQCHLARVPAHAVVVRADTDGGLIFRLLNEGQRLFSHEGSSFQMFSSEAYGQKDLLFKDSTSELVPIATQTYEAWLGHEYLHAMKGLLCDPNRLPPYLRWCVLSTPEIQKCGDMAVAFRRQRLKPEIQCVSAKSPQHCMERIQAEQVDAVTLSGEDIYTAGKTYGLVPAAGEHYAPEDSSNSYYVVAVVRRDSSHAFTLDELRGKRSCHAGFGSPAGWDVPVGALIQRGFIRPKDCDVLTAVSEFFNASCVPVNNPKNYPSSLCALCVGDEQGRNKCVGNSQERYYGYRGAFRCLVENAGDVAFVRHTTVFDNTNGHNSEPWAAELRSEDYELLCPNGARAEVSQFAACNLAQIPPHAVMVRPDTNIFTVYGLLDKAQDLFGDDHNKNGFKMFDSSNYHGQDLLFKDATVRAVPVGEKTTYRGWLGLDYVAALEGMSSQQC
Protocol: (§1) Binding curves for each resulting antibody was determined by a competition binding assay. Briefly, 1×10⁵ RPMI-7951 cells stably expressing human CD228 were aliquoted per well of a 96-well v-bottom plates on ice. […] Cells were pelleted and washed 3 times with PBS/BSA. The cells were pelleted and resuspended in 125 μL of PBS/BSA. Fluorescence was analyzed by flow cytometry, using percent of saturated fluorescent signal to determine percent labeled murine CD228 mAb bound.

[12] = target: T1, human CD228 on the cell surface …; assay: as above; remark: listed apart in the source
Protocol: as §1

[13] = target: T1, human CD228 on the cell surface …; assay: as above; remark: listed apart in the source
Protocol: as §1

[14] = target: T1, human CD228 on the cell surface …; assay: as above; remark: listed apart in the source
Protocol: as §1

[15] = target: T1, human CD228 on the cell surface …; assay: as above; remark: listed apart in the source
Protocol: as §1

[16] = target: T1, human CD228 on the cell surface …; assay: as above; remark: listed apart in the source
Protocol: as §1

[17] = target: T1, human CD228 on the cell surface …; assay: saturation binding by flow cytometry on RPMI-7951 cells stably expressing human CD228; apparent KD
Protocol: (§2) The KD for each resulting antibody was then determined by a saturation binding assay. Briefly, 1×10⁵ RPMI-7951 cells stably expressing human CD228 were aliquoted per well of a 96-well v-bottom plates. Each CD228 antibody was added in concentrations ranging from 0.05 pM to 340 nM and incubated on ice for 60 minutes. Cells were pelleted and washed 3× with PBS/BSA followed by addition of 10 ug/ml of a PE labeled anti-human IgG goat secondary antibody and incubated on ice for an additional 60 minutes. Cells were pelleted and washed 3× with PBS/BSA and resuspended in 125 μL of PBS/BSA. Fluorescence was analyzed by flow cytometry, using percent of saturated fluorescent signal to determine percent bound and to subsequently calculate apparent KD. The binding curves for recombinant human anti-CD228 antibodies are shown in FIG. 13 and the KD for cL49ec (chimeric LA9 with an S239C mutation in the […] constant region), hL49 HALA G1, hL49 HALB G1, and hL49 HALC G1 are shown in Table 8. The antibody called “HALC,” “hL49,” or “hL49-HALC” which comprises heavy chain “HA” and the light chain “LC” was selected for use in all other experiments.

[18] = target: T1, human CD228 on the cell surface …; assay: saturation binding by flow cytometry, RPMI-7951 cells stably expressing human CD228; PE anti-human IgG secondary; row 'ug/mL' of the drawn table headed 'kD'
Protocol: as §2

[19] = target: T2, human CD228 on the cell surface (RPMI-7951 cells stably expressing human CD228; A375 cells) (human) (UniProt P08582); assay: competition flow cytometry, RPMI-7951 cells stably expressing human CD228; competitor 5 nM AF647-labeled mL49; unlabeled antibody 0.06-1000 nM
T2 sequence (looked up): T1 sequence (looked up)

- EC50 [1]: 0.000694 µM
- EC50 [2]: 0.000838 µM
- EC50 [3]: 0.000757 µM
- EC50 [4]: 0.00074 µM
- EC50 [5]: 0.000767 µM
- EC50 [6]: 0.000724 µM
- EC50 [7]: 0.000727 µM
- EC50 [8]: 0.000756 µM
- EC50 [9]: 0.000809 µM
- EC50 [10]: 0.000749 µM
Molecule: cL235 (antibody)

- IC50 (read off the curve) [11]: 0.01 to 0.02 µM
- IC50 (read off the curve) [12]: 0.01 to 0.02 µM
- IC50 (read off the curve) [13]: 0.01 to 0.02 µM
- IC50 (read off the curve) [14]: 0.01 to 0.02 µM
- IC50 (read off the curve) [15]: 0.01 to 0.02 µM
- IC50 (read off the curve) [16]: 0.01 to 0.02 µM
B1: mouse antibody L49 (mL49), AlexaFluor-647 labeled parental murine CD228 mAb (antibody, mouse IgG1, V domains shown)
VH: EVQLQESGPSLVKPSQTLSLTCSVTGDSITSGYWNWIRKFPGNKLEYMGYISDSGITYYNPSLKSRISITRDTSKNQYYLQLNFVTAEDTATYNCARRTLATYYAMDYWGQGTSVTVSS
VL: DFVMTQTPLSLPVSLGDQASISCRASQSLVHSNGNTYLHWYLQKPGQSPKLLIYRVSNRFSGVPDRFSGSGSGTDFTLKISRVEAEDLGVYFCSQSTHVPPTFGGGTKLEIK
notes: also called Mu L49

- Kd [17]: 0.0058 µM
- IC50 (read off the curve) [13]: ~0.03 µM
- IC50 (read off the curve) [14]: ~0.03 µM
- IC50 (read off the curve) [15]: ~0.03 µM
- Kd [18]: 0.9 mg/L
- IC50 (read off the curve) [16]: ~0.03 µM
B2: cL49ec (chimeric L49 with an S239C mutation) (antibody, V domains shown)
VH: B1 VH
VL: B1 VL
notes: Human constant regions with S239C; also called chimeric LA9

- IC50 (read off the curve) [19]: 0.06 µM
B3: hL49ec HCLA (antibody, V domains shown)
VH: QVQLQESGPGLVKPSETLSLTCTVSGDSITSGYWNWIRQFPGKGLEYMGYISDSGITYYNPSLKSRITISRDTSKNQYSLKLSFVTAADTAVYNCARRTLATYYAMDYWGQGTLVTVSS
VL: DFVMTQSPLSLPVTLGQPASISCRASQSLVHSNGNTYLHWFQQRPGQSPRRLIYRVSNRFSGVPDRFSGSGSGTDFTLKISRVEAEDVGVYYCSQSTHVPPTFGQGTKLEIK

- IC50 (read off the curve) [19]: 0.04 µM
B4: hL49ec HBLA (antibody, V domains shown)
VH: B3 VH with F84S, N94Y
VL: B3 VL

- IC50 (read off the curve) [19]: 0.03 µM
B5: hL49ec HBLB (antibody, V domains shown)
VH: B3 VH with F84S, N94Y
VL: B3 VL with F41Y, R51L

- IC50 (read off the curve) [19]: 0.02 µM
B6: hL49ec HCLB (antibody, V domains shown)
VH: B3 VH
VL: B3 VL with F41Y, R51L

- IC50 (read off the curve) [14]: ~0.04 µM
- IC50 (read off the curve) [15]: ~0.04 µM
B7: hL49ec HALA (antibody, V domains shown)
VH: B3 VH with F40P, M48I, I67V, F84S, N94Y
VL: B3 VL
notes: Same variable regions as m5 (hL49 HALA G1); The sheet prints 'ec', so it is kept apart from the G1 form; also called HALA in the 'ec' format

- Kd [17]: 0.0053 µM
- Kd [18]: 0.8 mg/L
B8: hL49 HALA G1 (antibody, V domains shown)
VH: B3 VH with F40P, M48I, I67V, F84S, N94Y
VL: B3 VL
notes: Humanized L49 with heavy chain HA and light chain LA; 'G1' (IgG1)

- IC50 (read off the curve) [14]: 0.02 to 0.03 µM
B9: hL49ec HALB (antibody, V domains shown)
VH: B3 VH with F40P, M48I, I67V, F84S, N94Y
VL: B3 VL with F41Y, R51L
notes: Same variable regions as m6 (hL49 HALB G1); The sheet prints 'ec', so it is kept apart from the G1 form; also called HALB in the 'ec' format

- Kd [17]: 0.0078 µM
- Kd [18]: 1.2 mg/L
B10: hL49 HALB G1 (antibody, V domains shown)
VH: B3 VH with F40P, M48I, I67V, F84S, N94Y
VL: B3 VL with F41Y, R51L
notes: Humanized L49 with heavy chain HA and light chain LB; 'G1' (IgG1)
